Results reported in paper PMC9026278.

What was measured:
Experiment in all cases: SPR
[1] = target: CH2-4.10 N299A aglycosylated anti-mesothelin human IgG1 antibody (human)
[2] = target: CH2-4.15 N297A aglycosylated anti-mesothelin human IgG1 antibody (human)
[3] = target: CH2-4.16 N298A aglycosylated anti-mesothelin human IgG1 antibody (human)
[4] = target: CH2-4.16 N298A-tubulysin (MSLN, huG1)
[5] = target: CH2-4.19 N301A aglycosylated anti-mesothelin human IgG1 antibody (human)
[6] = target: CH2-4.20 N300A aglycosylated anti-mesothelin human IgG1 antibody (human)
[7] = target: N297A aglycosylated anti-mesothelin human IgG1 antibody (human)

- fold weaker binding than the corresponding glycosylated species [1]: 100 fold
- fold weaker binding than the corresponding glycosylated species [2]: 100 fold
- fold weaker binding than the corresponding glycosylated species [3]: 100 fold
- Kd [4]: 172 nM
- fold weaker binding than the corresponding glycosylated species [5]: 100 fold
- fold weaker binding than the corresponding glycosylated species [6]: 100 fold
- fold weaker binding than the corresponding glycosylated species [7]: 100 fold
Substance: hCD64 (from UniProt P12314 16-374) (receptor)
